Entries after “also recorded” stand apart in the source; their conditions may differ.
Columns and labels:
[1] = biological target: integrin αvβ3 (Homo sapiens, UniProt P05106+P06756); experiment: ELISA binding to immobilized purified αvβ3
Procedure: FIG. 4: Binding of tTF, tTF-RGD and tTF-NGR to integrin αvβ3. The binding of 0.1 μM tTF, tTF-RGD and tTF-NGR to immobilized αvβ3 was quantified with a polyclonal antibody against human TF (American Diagnostica) in an ELISA. The results are presented as median and interquartile range. The differences in binding between tTF-RGD and tTF or between tTF-NGR and tTF were statistically significant (p<0.001, Mann-Whitney test).

[2] = system: human endothelial cells; experiment: FACS binding of biotinylated proteins to endothelial cells in suspension; assay type: cell-based; settings: 0.1 μM tTF-RGD, 1 μM competing peptide
Procedure: FIG. 6: Binding of tTF and tTF-RGD to human endothelial cells. A: FACS analysis of endothelial cells incubated with 0.1 μM tTF (2) or with 0.1 μM tTF-RGD (3) for 60 min at 4° C. […] Curves 1 in A and B show the negative control.
Next the specific binding of tTF-RGD to αvβ3 on endothelial cells was evaluated. For this, the differential binding of biotinylated tTF and tTF-RGD to endothelial cells in suspension was analysed by FACS (Fluorescence Activated Cell Sorting). The fact that all endothelial cells held in tissue culture are activated, i.e. express αvβ3 molecules, is utilized experimentally. This can be detected by various immunohistochemical methods. A cultivated endothelial cell thus corresponds, in relation to its expression pattern with respect to αvβ3 to a tumor endothelial cell. Accordingly, a cultivated endothelial cell can be used as a model system for the specific binding of substances to tumor endothelial cells and also permits predictions to be made concerning the expected toxicity.
Streptavidin-phycoerythrin was used as the detection method. The measured fluorescence intensity for tTF-RGD was higher by a factor of 8 than for tTF (FIG. 6A). Furthermore, the binding of 0.1 μM tTF-RGD to endothelial cells was lowered competitively by 75% by the administration of 1 μM of the synthetic peptide GRGDSP (SEQ ID NO:33) (FIG. 6B). […]

[3] = biological target: T1, matrix metalloproteinase-2 (MMP-2) (Homo sapiens, UniProt P08253); settings: cited from earlier work
T1 sequence (P08253 110-660): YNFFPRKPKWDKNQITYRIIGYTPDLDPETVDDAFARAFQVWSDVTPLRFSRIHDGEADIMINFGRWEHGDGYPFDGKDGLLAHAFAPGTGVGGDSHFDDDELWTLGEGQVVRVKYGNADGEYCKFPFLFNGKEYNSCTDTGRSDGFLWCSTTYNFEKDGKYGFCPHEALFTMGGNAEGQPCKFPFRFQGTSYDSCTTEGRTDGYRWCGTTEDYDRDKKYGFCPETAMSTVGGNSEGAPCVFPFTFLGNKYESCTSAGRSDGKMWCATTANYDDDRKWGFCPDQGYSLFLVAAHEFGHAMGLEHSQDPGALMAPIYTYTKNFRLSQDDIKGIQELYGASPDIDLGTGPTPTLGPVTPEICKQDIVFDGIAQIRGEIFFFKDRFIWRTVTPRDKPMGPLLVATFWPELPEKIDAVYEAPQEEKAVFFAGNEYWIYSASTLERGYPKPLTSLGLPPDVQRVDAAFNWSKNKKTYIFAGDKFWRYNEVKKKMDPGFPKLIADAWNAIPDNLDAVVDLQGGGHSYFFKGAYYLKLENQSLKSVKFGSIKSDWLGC

[4] = system: human malignant melanoma (M21); experiment: M21 melanoma xenograft in athymic nude mice, intravenous therapy; assay type: in vivo
Procedure: The vertical arrows indicate the times of injection with the respective substances.
The vertical arrows indicate the times of the injections with the respective substances.
(§1) The tTF-RGD and tTF-NGR fusion proteins were evaluated with respect to their effects and side-effects on xenografts of human tumors in athymic nude mice. The models established in our laboratory were used for this (33, 34). The cell lines CCL185 (human adenocarcinoma of the lung) and M-21 (human melanoma) were injected subcutaneously into the flank of male BALB/c nude mice (9-12 weeks old). On attaining a tumor volume of about 50-100 mm^3 (CCL185) or 400-600 mm^3 (M−21), the mice were assigned to four groups at random. Group 1 received only physiological saline solution (NaCl), group 2 tTF, group 3 tTF-RGD, and group 4 tTF-NGR (in each case 1.5-2.0 mg/kg body weight (BW) of the protein). The injections were made in the caudal vein of the animals at intervals of 1-3 days (depending on the growth rate of the particular cell line). Considerable therapeutic activity of the fusion proteins was observed.

[5] = biological target: T2, activation of factor X to factor Xa via factor VIIa (Homo sapiens, UniProt P08709); experiment: Cofactor activity in activation of FX by FVIIa (Michaelis-Menten analysis, chromogenic FXa readout); assay type: biochemical; settings: in the presence of phospholipids
T2 construct: 50 nM recombinant FVIIa (Novo-Nordisk) in TBS-BSA; purchased Novo-Nordisk (FVIIa); Enzyme Research Laboratories (FX)
T2 sequence (P08709 61-212 limits assumed): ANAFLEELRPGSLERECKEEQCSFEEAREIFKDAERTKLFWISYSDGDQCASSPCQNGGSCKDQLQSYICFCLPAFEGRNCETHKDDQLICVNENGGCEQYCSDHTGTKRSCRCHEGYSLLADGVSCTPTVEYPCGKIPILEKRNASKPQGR
T2 sequence (P08709 213-466 limits assumed): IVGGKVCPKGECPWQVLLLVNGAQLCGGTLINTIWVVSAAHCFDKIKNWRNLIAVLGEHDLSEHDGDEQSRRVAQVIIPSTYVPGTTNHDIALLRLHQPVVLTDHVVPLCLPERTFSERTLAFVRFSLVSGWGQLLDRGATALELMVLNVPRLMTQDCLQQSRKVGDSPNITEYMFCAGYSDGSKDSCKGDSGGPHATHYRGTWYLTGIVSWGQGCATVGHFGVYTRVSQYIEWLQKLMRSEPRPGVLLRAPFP
Procedure: The ability of tTF and of the tTF fusion polypeptides to intensify the specific proteolytic activation of FX via FVIIa in the presence of phospholipids was determined in a slightly modified version of the method described by Ruf (45). For this, 20 μl of each of the following reagents was pipetted in microtiter plates: (a) 50 nM recombinant FVIIa (Novo-Nordisk) in TBS-BSA; (b) 0.16 nM-1.6 μM tTF/tTF fusion polypeptide in TBS-BSA; (c) 25 mM CaCl2 and 500 μM phospholipid vesicle (phosphatidylcholine/phosphatidylserine, 70/30, M/M; Sigma). After 10 min incubation at room temperature, 20 μl of the natural substrate FX (Enzyme Research Laboratories) was added at a concentration of 5 μM. Then a sample was taken by pipette at one-minute intervals and the reaction was stopped by adding 100 mM EDTA solution. The amount of FXa that formed was measured by addition of the chromogenic substrate Spectrozyme FXa in a Microplate Reader by determining the change in absorption at 405 nm and the parameters for the Michaelis-Menten kinetics were analysed by the method described by Ruf. […] The Michaelis constants (Km) found for the fusion polypeptides were in the range 0.12-1.2 nM (FIG. 3), and thus in the lower range that is published for tTF. It can therefore be assumed that the functional activity is unaffected by the fusing of tTF with the peptides.

[6] = system: human lung carcinoma (CCL185); experiment: CCL185 lung carcinoma xenograft in athymic nude mice, intravenous therapy; assay type: in vivo
Excerpt: FIG. 7: Inhibition of a human lung carcinoma (CCL185) growing as a xenograft in athymic nude mice by intravenous therapy with tTF fusion proteins (tTF-RGD, n=6; tTF-NGR, n=6) compared with tumor growth with infusion of physiological saline solution (NaCl, n=8) or tTF (n=1). The vertical arrows indicate the times of injection with the respective substances.
c: Inhibition of a human lung carcinoma (CCL185) growing as a xenograft in athymic nude mice by intravenous therapy with tTF fusion proteins (tTF-RGD, n=11) compared with the growth of the tumors in infusion of physiological saline solution (NaCl, n=10) or tTF (n=5). The vertical arrows indicate the times of the injections with the respective substances.
as §1

[7] = system: human fibrosarcoma (HT1080); experiment: HT1080 fibrosarcoma xenograft in BALB/c nude mice, intravenous therapy; assay type: in vivo; settings: HT1080 tumors
Excerpt: b: Inhibition of a human fibrosarcoma (HT1080) growing as a xenograft in athymic nude mice by intravenous therapy with tTF fusion proteins (tTF-RGD, n=12) compared with the growth of the tumors with infusion of physiological saline solution (NaCl, n=15) or tTF (n=14). The vertical arrows indicate the times of the injections with the respective substances.
The antitumor activity of the tTF-RGD fusion protein was also investigated in BALB/c nude mice with fibrosarcomas (HT1080). These tumors grow rapidly and are well-vascularized. […] This effect lasted until the end of the experiment on day 7 (P=0.021 for tTF-RGD relative to the buffer control (physiological saline solution), P=0.005 for tTF-RGD relative to tTF).

[8] = system: normal tissue such as heart, kidney, liver and lung; experiment: Histology of normal organs after injection (clotting, necrosis, organ toxicity); settings: repeated high doses (4 mg/kg BW)
[9] = system: tumor blood vessels; experiment: Macroscopy and histology of tumors after injection (thrombosis induction in tumor vessels, necrosis); assay type: in vivo, mice
Procedure: FIG. 9: Macroscopic in vivo photograph of a tumor-bearing mouse 20 min after injection of the tTF-NGR fusion protein (A, left half of the picture) or NaCl (A, right half of the picture). […] After 60 min, the two mice were exsanguinated, the tumor was excised in toto and examined histologically. […] In contrast, the NaCl-treated tumor appears to be vital (C).
FIG. 10: Histology of the melanoma tumor 1 hour after intravenous injection of tTF-RGD (A and B), tTF-NGR (C and D) and common salt (E and F) in the caudal vein of the tumor-bearing nude mouse. […] The photographs are of representative areas of the tumors (A, C and E: 200× magnification, B, D and F 400× magnification; HE staining (staining described e.g. in H. C. Burck, Histologische Technik-Leitfaden für die Herstellung mikroskopischer Präparate in Unterricht und Praxis, 5th edition, Thieme Verlag, Stuttgart 1982, pages 109 ff.).
FIG. 35: Macrograph of a mouse bearing an M21 tumor at the end of treatment (day 7) with tTF-RGD fusion protein (A, C) or NaCl (B, D).
To verify the mechanism of action of thrombosis induction in tumor vessels, the following experiment was carried out: the human melanoma cell line was injected into the flank of two male BALB/c nude mice. On attaining a tumor size of approx. 500 mm^3, 2.0 mg/kg BW tTF-NGR or NaCl was injected into the caudal vein. […] After 60 min the mice were exsanguinated, the tumor was excised in toto and investigated histologically. […] In contrast, the tumor treated with NaCl appears to be vital (FIG. 9C).

[10] = melanoma tumor 1 hour after intravenous injection, HE staining

integrin αvβ3, sequence (P06756 31-889 limits assumed): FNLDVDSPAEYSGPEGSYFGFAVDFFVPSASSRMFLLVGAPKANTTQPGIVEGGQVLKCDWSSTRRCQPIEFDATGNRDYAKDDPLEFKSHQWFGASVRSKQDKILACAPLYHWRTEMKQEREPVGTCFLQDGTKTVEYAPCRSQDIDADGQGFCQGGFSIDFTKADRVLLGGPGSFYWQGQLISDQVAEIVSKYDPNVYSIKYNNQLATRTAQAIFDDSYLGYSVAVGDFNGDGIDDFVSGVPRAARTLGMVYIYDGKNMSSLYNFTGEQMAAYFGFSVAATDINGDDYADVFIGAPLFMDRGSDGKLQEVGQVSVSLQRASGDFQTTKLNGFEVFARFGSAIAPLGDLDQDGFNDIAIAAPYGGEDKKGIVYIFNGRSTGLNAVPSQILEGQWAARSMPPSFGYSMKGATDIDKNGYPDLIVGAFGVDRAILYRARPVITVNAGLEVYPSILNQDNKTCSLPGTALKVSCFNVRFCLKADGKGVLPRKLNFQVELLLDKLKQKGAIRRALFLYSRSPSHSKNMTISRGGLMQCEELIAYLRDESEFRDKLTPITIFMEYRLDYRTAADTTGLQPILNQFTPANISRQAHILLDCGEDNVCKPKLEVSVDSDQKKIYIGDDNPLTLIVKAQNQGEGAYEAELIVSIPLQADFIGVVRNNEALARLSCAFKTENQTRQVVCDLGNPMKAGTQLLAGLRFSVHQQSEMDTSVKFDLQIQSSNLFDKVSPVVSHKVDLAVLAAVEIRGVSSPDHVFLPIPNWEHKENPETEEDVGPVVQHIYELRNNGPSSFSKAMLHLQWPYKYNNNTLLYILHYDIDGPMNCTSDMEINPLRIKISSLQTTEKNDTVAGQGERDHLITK
integrin αvβ3, sequence (P06756 891-1048 limits assumed): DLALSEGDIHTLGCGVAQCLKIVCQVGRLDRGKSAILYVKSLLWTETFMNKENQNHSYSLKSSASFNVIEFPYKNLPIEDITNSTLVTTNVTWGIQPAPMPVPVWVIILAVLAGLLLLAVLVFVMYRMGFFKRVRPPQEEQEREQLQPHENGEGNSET
integrin αvβ3, sequence (P05106 27-788): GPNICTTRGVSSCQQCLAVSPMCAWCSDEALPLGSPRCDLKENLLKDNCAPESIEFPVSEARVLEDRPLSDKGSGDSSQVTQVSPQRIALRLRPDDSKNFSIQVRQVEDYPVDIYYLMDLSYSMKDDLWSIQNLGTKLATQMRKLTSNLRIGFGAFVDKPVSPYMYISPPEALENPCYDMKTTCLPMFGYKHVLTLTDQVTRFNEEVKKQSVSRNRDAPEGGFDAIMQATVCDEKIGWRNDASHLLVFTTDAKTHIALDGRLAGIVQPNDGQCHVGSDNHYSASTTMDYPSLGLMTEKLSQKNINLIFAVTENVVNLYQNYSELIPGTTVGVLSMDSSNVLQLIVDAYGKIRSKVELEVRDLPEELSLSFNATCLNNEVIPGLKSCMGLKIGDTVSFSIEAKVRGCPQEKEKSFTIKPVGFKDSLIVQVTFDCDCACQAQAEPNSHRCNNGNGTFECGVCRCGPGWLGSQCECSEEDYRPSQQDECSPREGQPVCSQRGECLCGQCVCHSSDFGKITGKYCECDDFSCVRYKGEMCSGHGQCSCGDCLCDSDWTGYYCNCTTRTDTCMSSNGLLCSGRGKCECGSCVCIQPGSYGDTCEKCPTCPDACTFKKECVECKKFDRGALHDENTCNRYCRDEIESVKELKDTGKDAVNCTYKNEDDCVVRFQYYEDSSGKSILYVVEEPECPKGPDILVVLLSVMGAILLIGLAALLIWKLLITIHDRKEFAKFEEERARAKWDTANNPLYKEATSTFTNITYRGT

GRGDSP: synthetic peptide with the sequence GRGDSP (SEQ ID NO:33) from the company Gibco
p of inhibition of tTF-RGD binding (Mann-Whitney test) ([1]; both RGD peptide concentrations (1-10 μM)): < 0.001
competitive inhibition of binding of tTF-RGD to immobilized αvβ3 ([1]; tTF-RGD 0.1 μM, peptide 1-10 μM): competitively inhibits; also recorded: inhibited significantly
reduction in binding of tTF-RGD to endothelial cells [2]: 75%

TTHWGFTL
inhibition of MMP-2 [3]: selective and potent inhibition

B1: tTF: truncated human tissue factor, N-terminal 218 amino acids of TF (SEQ ID NO:2) (protein, listed as Homo sapiens)
chain: SGTTNTVAAYNLTWKSTNFKTILEWEPKPVNQVYTVQISTKSGDWKSKCFYTTDTECDLTDEIVKDVKQTYLARVFSYPAGNVESTGSAGEPLYENSPEFTPYLETNLGQPTIQSFEQVGTKVNVTVEDERTLVRRNNTFLSLRDVFGKDLIYTLYYWKSSSSGKKTAKTNTNEFLIDVDKGENYCFSVQAVIPSRTVNRKSTDSPVECMGQEKGEFR
modifications: Amino acid sequence of tTF1-218
Mean tumor volume Day 0 ([4]; M21 tumors, Day 0 (baseline)): 558 ± 47 mm^3
Mean tumor volume Day 7 ([4]; M21 tumors, Day 7): 931 ± 147 mm^3
functional activity (cofactor activity in FX activation via FVIIa) [5]: functionally active
Mean tumor volume Day 0 ([6]; CCL185 tumors, Day 0 (baseline)): 44 ± 8 mm^3
Mean tumor volume Day 7 ([6]; CCL185 tumors, Day 7): 764 ± 148 mm^3
Mean tumor volume Day 0 ([7]; Day 0 (baseline)): 1751 ± 269 mm^3
Mean tumor volume Day 7 ([7]; Day 7): 2335 ± 398 mm^3

B2: tTF-NGR: fusion polypeptide tTF-GNGRAHA (SEQ ID NO:4) (protein)
chain: SGTTNTVAAYNLTWKSTNFKTILEWEPKPVNQVYTVQISTKSGDWKSKCFYTTDTECDLTDEIVKDVKQTYLARVFSYPAGNVESTGSAGEPLYENSPEFTPYLETNLGQPTIQSFEQVGTKVNVTVEDERTLVRRNNTFLSLRDVFGKDLIYTLYYWKSSSSGKKTAKTNTNEFLIDVDKGENYCFSVQAVIPSRTVNRKSTDSPVECMGQEKGEFRGNGRAHA
modifications: Amino acid sequence of tTF-GNGRAHA
visible clot formation or organ toxicity [8]: did not lead to any visible clot formation or organ toxicity
effect on tumor growth ([4]; M21 xenograft, intravenous therapy, compared with NaCl or tTF): Inhibition and partial remission
binding to the αvβ3 integrin in ELISA ([1]; 0.1 μM protein, immobilized αvβ3): demonstrated
effect on tumor growth ([6]; CCL185 xenograft, intravenous therapy, compared with NaCl or tTF): Inhibition
histology of tumor blood vessels (thrombus formation) [9, 10]: microscopically visible thrombus formation in the blood vessels; also recorded: blood vessels appear to be thrombolytically occluded
histology: tumor necrosis in supply region of occluded vessel [9, 10]: Extensive tumor necroses
macroscopic picture of the tumor in vivo ([9]; melanoma, 20 min after 2.0 mg/kg BW into the caudal vein): bluish-livid coloration of the tumor
appearance of the excised tumor ([9]; melanoma, excised 60 min after 2.0 mg/kg BW): hemorrhagic imbibition of the tumor

— patent publication US7618943B2, “Fusion polypeptides, and use thereof in antivascular tumor therapy” (Oncoscience AG, priority 2003, dated 2009)
